“And” between values parts separate entries of the source, which are not always exact repeats. Identical values can stand only once. Like-named read-outs stand apart in the source and are kept apart here.

Assay [1] has as its target Acanthamoeba myosin-II (Acanthamoeba). As to the kind of experiment: electron microscopy.
Assay [2] shares this target. The assay is described as follows: electron microscopy. This is another data set of the same source.
The target of assay [3] is Acanthamoeba myosin-II, 2.6 heavy chain phosphates per molecule (Acanthamoeba). The assay is described as follows: sedimentation.
Assay [4] shares this target. As to the kind of experiment: sedimentation. This is another data set of the same source.
Assay [5] has the same target. As to the kind of experiment: sedimentation. This is another data set of the same source.
The target is the same in assay [6]. The assay is described as follows: sedimentation. The source holds these as a separate data set.
In assay [7] the target is Acanthamoeba myosin-II, 4.9 heavy chain phosphates per molecule (Acanthamoeba). As to the kind of experiment: sedimentation.
Assay [8] deals with Acanthamoeba myosin-II, dephosphorylated, 0.8 heavy chain phosphates per molecule (Acanthamoeba). The assay is described as follows: sedimentation.

In the case of Acanthamoeba myosin-II (complex), the stoichiometry N – broadly, a count of units in the complex or per binding partner – was 16 and > 12 in assay [1]; more than 35 in assay [2].

Regarding “Acanthamoeba myosin-II, 2.6 heavy chain phosphates per molecule (complex)”, the critical concentration in assay [3] was 24 µg/mL and 32 µg/mL; in assay [4], 26 µg/mL; in assay [5], 14 µg/mL and 18 µg/mL and 15 µg/mL; in assay [6] it was 20 µg/mL and 15 µg/mL.

In turn, “Acanthamoeba myosin-II, 4.9 heavy chain phosphates per molecule (complex)” came in with a critical concentration in assay [7] of less than 5 µg/mL.

In assay [8], “Acanthamoeba myosin-II, dephosphorylated, 0.8 heavy chain phosphates per molecule (complex)” returned a critical concentration of 18 µg/mL.

The values above are taken from PMC2112911.
